In paper PMC5359625, “The Interrelationship between Abscisic Acid and Reactive Oxygen Species Plays a Key Role in Barley Seed Dormancy and Germination”:

What was measured:
GST-HvABI5 [1] = molecular target: T1, GST-HvABI5 (Hordeum vulgare, UniProt Q8GTR6 1-353); assay: EMSA; DIG Gel Shift Kit 2nd Generation (Roche), manufacturer's conditions; buffer, salt, pH and temperature not stated; settings: protein: recombinant; tags: N-terminal GST (pGEX); chain copies: 2; label: DIG; blunt
T1 sequence: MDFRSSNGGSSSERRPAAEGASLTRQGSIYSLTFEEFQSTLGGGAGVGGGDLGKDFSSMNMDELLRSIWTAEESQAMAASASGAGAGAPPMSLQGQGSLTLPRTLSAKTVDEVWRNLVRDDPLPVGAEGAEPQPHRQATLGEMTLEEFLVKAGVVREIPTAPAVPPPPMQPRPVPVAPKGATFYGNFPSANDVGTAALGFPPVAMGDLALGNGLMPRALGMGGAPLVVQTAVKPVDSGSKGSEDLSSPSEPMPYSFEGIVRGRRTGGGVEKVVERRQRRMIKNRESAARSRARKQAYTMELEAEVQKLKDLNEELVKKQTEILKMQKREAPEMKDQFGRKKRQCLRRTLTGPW

GST-HvABI5 [2] = molecular target: T1, GST-HvABI5; assay: competition; 100x molar excess unlabeled competitor vs DIG-labeled N1; DIG Gel Shift Kit 2nd Generation (Roche), manufacturer's conditions; buffer, salt, pH and temperature not stated; settings: protein: recombinant; tags: N-terminal GST (pGEX); chain copies: 2; label: none; blunt

B1: HvCAT2-probe (HvCAT2 promoter, ABRE) (dsDNA)
DNA 1: CACACACACGCACTACGTTCCGAGCATTGCGTCGCGGTGGGTGAG
DNA 2: CTCACCCACCGCGACGCAATGCTCGGAACGTAGTGCGTGTGTGTG
GST-HvABI5 [1]
  binding result: binds

B2: unlabeled HvCAT2 probe competitor (dsDNA)
DNA 1: B1 DNA 1
DNA 2: B1 DNA 2
GST-HvABI5 [2]
  binding result: binds
